Test results published in IntAct's records for PubMed 17210637.

Target: merl_human NF2 (UniProt P35240)
UniProt P35240, sequence (P35240 whole entry): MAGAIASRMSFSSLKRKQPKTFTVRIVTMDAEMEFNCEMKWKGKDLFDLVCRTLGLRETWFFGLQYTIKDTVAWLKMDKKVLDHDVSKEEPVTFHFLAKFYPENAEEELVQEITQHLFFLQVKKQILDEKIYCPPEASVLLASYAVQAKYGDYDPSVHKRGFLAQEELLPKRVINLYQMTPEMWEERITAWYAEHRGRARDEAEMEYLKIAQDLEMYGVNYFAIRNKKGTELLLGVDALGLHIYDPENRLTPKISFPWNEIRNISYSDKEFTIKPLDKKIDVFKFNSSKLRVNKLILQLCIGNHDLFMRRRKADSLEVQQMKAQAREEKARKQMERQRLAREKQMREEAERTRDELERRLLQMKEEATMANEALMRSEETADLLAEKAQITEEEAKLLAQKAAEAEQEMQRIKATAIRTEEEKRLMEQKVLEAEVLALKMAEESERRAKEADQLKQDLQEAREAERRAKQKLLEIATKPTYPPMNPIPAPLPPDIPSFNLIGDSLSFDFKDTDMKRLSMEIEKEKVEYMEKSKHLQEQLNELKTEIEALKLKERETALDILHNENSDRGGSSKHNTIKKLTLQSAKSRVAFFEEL

- effect of a mutation on the interaction: decreasing interaction
Substance: GTP-binding protein 4 (Homo sapiens) (from UniProt Q9BZE4) R394A;K395A
